Test: label from the status in PepcDB records

Row | Sequence | protein production
1 | MNADYFFNQGLSDNLSREYQRTVVGGTKPTNRRIDAETYCKRGITFSRELKDYQGAIAFFNLAVEINPNYAQAYYHRANARYCLADFTAAIADYDQALQINPTFAEYYYCRGNAYLAQGDYDQAIANYISTIEFDPLLASNINEDIANAYYYRGLNNNDQGNYQEAIIDLQQALQWHPYFAAAYSIRGNIYYKLGEYRQAIADHERAVQLDPNLAEAYQNRGNAHYALGAYQKAIADYNRTLEINPHQVGAYYNRGLISFYLHEYQQAFADFNQVLNFNPNDAQAYYQRGLIYEAWQDYQSALADYNQSLQLNSELAVVYGVRANIYRHLGDYPSALADGNRLLELQPNFAAGYCDRATSRRCLGDYRGAIADYNQALQINPNIAEAYYGRAIAHEALRDFIGAIADYTQSIRISPDFAPAYCNRGNARRQLGDTKGAVTDYNQALTINPQLSEAYYNRGSLHYDQQNYRSAIADYTQALELQPESARYYSDRAHARYALQDYQGAVADYTQSIAINPGYAEDWYNRGRSHLLLGYLEEALADLNQALKFHPHWASAYLLRADILRNRGDYQAAIADFQKSADLYSQEGNTQNYQQILEIIAGLK | failed
2 | MGGKTKKHAMRLFDRIAEKYDLLNRILSFGMDTKWRKRVVELILEVNPEKVLDLATGTGDVARLLKRKAPHLEITGLDSSSKMLEIAEKRLKDGEFIVGDAHNLPFYDRSFDAITVAFGFRNFSDRRRVLRECRRVLKRKGRLVILELLPPNTKRFTGKIYSFYLKTWVPFVGGLFSGDFHAYRYLSTSVLNFLTPDQIVEMMKEEGFEVSFEPLFFSVAGIFIGDLIWLEHHHHHH | failed
3 | MAQRGDPPPLRQYVAVRARLVGSGLVVGLLLGGLGMAGWTLYTGDARSSEATVFALGAMVFGFGLLGWSGSILAGRGIEAMQEHMDTRSNWTERDSRRAMARLCGGGGGIMVGTSVVAALL | failed
4 | MVKSYQRFEQAAAFGVIASNANCVWIPASSGNSNGSGPGQLITSALEDVNIWDIKTGDLVSKLSDGLPPGASDARGAKPAECTYLEAHKDTDLLAVGYADGVIKVWDLMSKTVLLNFNGHKAAITLLQFDGTGTRLISGSKDSNIIVWDLVGEVGLYKLRSHKDSITGFWCQGEDWLISTSKDGMIKLWDLKTHQCIETHIAHTGECWGLAVKDDLLITTGTDSQVKIWKLDIENDKMGGKLTEMGIFEKQSKQRGLKIEFITNSSDKTSFFYIQNADKTIETFRIRKEEEIARGLKKREKRLKEKGLTEEEIAKSIKESYSSFILHPFQTIRSLYKIKSASWTTVSSSKLELVLTTSSNTIEYYSIPYEKRDPTSPAPLKTHTIELQGQRTDVRSIDISDDNKLLATASNGSLKIWNIKTHKCIRTFECGYALTCKFLPGGLLVILGTRNGELQLFDLASSSLLDTIEDAHDAAIWSLDLTSDGKRLVTGSADKTVKFWDFKVENSLVPGTKNKFLPVLKLHHDTTLELTDDILCVRVSPDDRYLAISLLDNTVKVFFLDSMKFYLSLYGHKLPVLSIDISFDSKMIITSSADKNIKIWGLDFGDCHKSLFAHQDSIMNVKFLPQSHNFFSCSKDAVVKYWDGEKFECIQKLYAHQSEVWALAVATDGGFVVSSSHDHSIRIWEETEDQVFLEEEKEKELEEQYEDTLLTSLEEGNGDDAFKADASGEGVEDEASGVHKQTLESLKAGERLMEALDLGIAEIEGLEAYNRDMKLWQRKKLGEAPIKPQGNAVLIAVNKTPEQYIMDTLLRIRMSQLEDALMVMPFSYVLKFLKFIDTVMQNKTLLHSHLPLICKNLFFIIKFNHKELVSQKNEELKLQINRVKTELRSALKSTEDDLGFNVQGLKFVKQQWNLRHNYEFVDEYDQQEKESNSARKRVFGTVI | failed
5 | SAQDEEDRVLIHFNVRDIKIGPECHDVQPPEGRSRDGLLTVNLREGGRLHLCAETKDDALAWKTALLEANSTPVRVYSPYQDYYEVVPPNAHEATYVRSYYGPPYAGPGVTHVIVREDPCYSAGAPLAMGMLAGAATGAALGSLMWSPCWF | failed
6 | MVKVAHVQLSSCCGCLVSLADTYEKLLDVLGAIDLVYSQTLADVREVPDDVDIILLEGSVCLSDHHAMEVALDSRKKAKILVALGACAATGNVTRFSKGNQPSKPVHDAFAPLTEVVKCDLAIPGCPPSPESIVAVVLAALNGDMEYLEPYAELAKYGSEACGCDLITKVINKSLCMGCGSCAAACPTRAVSMDAGRPLVDKEICIKCGSCSVQCPRIRFPDLIEKIE | failed
7 | MAAPLAPWRVSAFNTAKQSENKMHDDTVARRFGFTGGLVPGVEVMAYMMHLPVARWGRDFLERGLIEARFVKPVYDGETATVTGEEQGEAITLAVESRGELCATGSASLPVRAPAVDLGAYPETAAATNRPPVGAQSFPEGHWFGTAPVNWGGAKLRDYLDEIRETDPIYRSDDLIHPGTLQRIMNRVLVDNVVLGPWIHVGSKMQLLAAARGDDVLTARAKVVANYDKKGHRFAEFDALIVANGDRPVAHCHHVAIFAPRQQAAA | failed
8 | MSLYNYVLFDLDGTLTDSAEGITKSVKYSLNKFDIQVEDLSSLNKFVGPPLKTSFMEYYNFDEETATVAIDYYRDYFKAKGMFENKVYDGIEALLSSLKDYGFHLVVATSKPTVFSKQILEHFKLAFYFDAIVGSSLDGKLSTKEDVIRYAMESLNIKSDDAIMIGDREYDVIGALKNNLPSIGVTYGFGSYEELKNAGANYIVNSVDELHKKILELREGHHHHHH | not failed
9 | MSKPPLFFIIIIALIVVAASFRFVQQRREKAANEAAPLQQKQVVVSNKREKPVNDRRSRQQEVIPAGTSMRYEVSFKPLNGGLEKTFRLQAQQYHALTVGDQGTLSYKGTRFVGFVSRTPDNE | failed
10 | MTFAWGRGSHGGAGMRIVQITDTHFSPTKAHFNGNWAPLAAWIEQSGADLVIHTGDLSVDGADRDDDIAFCMDLMREISAPMLLVPGNHDVGHLPGSLQPVNAGRLERWRRLVGPDYWMEDAGSWRLIGLDSLLMGFDDAEEEAQFDWLRTVLESRGGRRVALFAHKPLFVDAPGEGDTGYWSVRPAQRQRLYDLIATHDVALFASGHLHRAWQGKYENTSLVWGPSAAFVVGDMERDMPGERLLGAVIHQFSDTVTSEIVAIPGMTAYVLDDVVAEVYPHEAHKARKRVASLEHHHHHH | failed
11 | MTKAIPWKINWQTMAFEYIGPQIEALLGWPQGSWKSVEDWATRMHPEDQEWVVNFCVKQSECGVDHEADYRALHRDGHYVWIRDVVHVVRDDSGEVEALIGFMFDISLEHHHHHH | not failed
12 | METQKTQAENPPKPATSSCRKKTKDDANFLEDVKDHIDDFINASMDDHKNCFNKTIKKMFGLSKAVADKQQSEAKGGVESYLPLQTTVSD | failed
13 | MIPPSYCFYYFIHSGGLLSLKIRCENFIRSIADLIRKAEIELPDDVVNALRKAESIEENQVAKSQLQAILKNIEIAKNHAVPMCQDTGIMIFFAELGTEFQPGFDLEAAVRDAVVLATREIPLRPNAVDPLNRNNSGNNTGSGIPDIHWKLVPGKQLKITVSPKGAGSENMSALRMFNPTEAGSIKNFVLETVINAGGMPCPPLTLGIGIGGSFDKAARLAKEALLEPLDAPMNELEQEVLEAVNALGIGCMGLGGSTTALAVHIKTAHCHTASLPVAINIQCWANRHASIVFGEEE | failed
14 | MSLTQAQGAQQYVNINPPMPSDTPGKIEVLEFFAYTCPHCAAIEPMVEDWAKTAPQDVVLKQVPIAFNAGMKPLQQLYYTLQALERPDLHPKVFTAIHTERKRLFDKKAMGEWAASQGVDRAKFDSVFDSFSVQTQVQRASQLAEAAHIDGTPAFAVGGRYMTSPVLAGNDYAGALKVVDQLIVQSREGHHHHHH | not failed
15 | MKSITQASFMKGIMFTFTIAIISYILAKFPILHTIGALAIAIIFAMIYRQVIGYPEHIRPGITFASKRLLKFAIILYGLKLNMGDILGKGWKLLLIDIIVIIFSISLTLLLNQIIKGNKDISILLGIGTGVCGAAAIAATAPILKSKEKDIAISVGIIALVGTIFALIYTAIEAIFNIPTITYGAWTGISLHEIAQVVLAAGIGGSEAMTFALLGKLGRVFLLIPLSIVLILYMRYKSHSSQVQQKIDIPYFLIGFIIMACINTFVPIPSLLMNIINVITTLCMLMAMVALGLNIVLKEVISKALKPFIVICITSICLSGVTLLVTSIMFK | failed
16 | MKHAKDIKVHKFNGPVKNDGKISVLVLGADKASGGKSRSDSIMVVQYDYIHKKMKMMSVMRDIYAEIPGYQNYKINAAYSLGGPELLRKTLNKNLGINPEYYAVIDFTGFEKMIDELEPNGVPMDVEKDMSENIGVSLKKGHHRLNGKELLGYARFRHDEEGDFGRVRRQQQVMQTLKKELVTPSSVIKLPKVAGILRGYINTSMPNSAIFQTGISYGIRGDKNVESLTVPINNSYQNINTNNDGSALEIDKEKNKKAVKEFLNNLEHHHHHH | failed
17 | MHSFPPLLLLLFWGVVSHSFPATLETQEQDVDLVQKYLEKYYNLKNDGRQVEKRRNSGPVVEKLKQMQEFFGLKVTGKPDAETLKVMKQPRCGVPDVAQFVLTEGNPRWEQTHLTYRIENYTPDLPRADVDHAIEKAFQLWSNVTPLTFTKVSEGQADIMISFVRGDHRDNSPFDGPGGNLAHAFQPGPGIGGDAHFDEDERWTNNFREYNLHRVAAHELGHSLGLSHSTDIGALMYPSYTFSGDVQLAQDDIDGIQAIYGRSQNPVQPIGPQTPKACDSKLTFDAITTIRGEVMFFKDRFYMRTNPFYPEVELNFISVFWPQLPNGLEAAYEFADRDEVRFFKGNKYWAVQGQNVLHGYPKDIYSSFGFPRTVKHIDAALSEENTGKTYFFVANKYWRYDEYKRSMDPGYPKMIAHDFPGIGHKVDAVFMKDGFFYFFHGTRQYKFDPKTKRILTLQKANSWFNCRKN | not failed
18 | MFTGFNWQQMISAFIVLFAVIDIIGSIPIIINLKEKGKDVNATKATVISFALLIGFFYAGDMMLKLFHVDIESFAVAGAFVIFLMSLEMILDIEIFKNQGPIKEATLVPLVFPLLAGAGAFTTLLSLRAEYASVNIIIALILNMLWVYFVVSMTGRVERFLGKGGIYIIRKFFGIILLAISVRLFTANITLLIEALHKS | failed
19 | MAADVVFPGLCVFLSAGLLLALVHGRRVGRRADRQCRHLAAITDTMSEGFYVVDGDDRIVMANAAAGRILGYTQDDLIGACAHALFHARSADDPDPVPLEECRLNRAVRERRAAFLDVGHFRHRSGKIIAVEVSCNPVADTLAEEGRRGGLLGWLLDGDDAEGAPGALLSMVTFVDITARRESEAAVIKLSHAVEQSSASIVITDADGRIEYANPAFTKISGYTAQEAIGRRPSILKSGLVPAETYRALWQTITNGGEWRGEFHNRRKDGTLYWEMASISPIRDARGKITNFVAVKDDVTERKAIESELYHRANYDALTGLPNRQLLLDRVSTALDLARRHDRRVAVMFMDIDRFKQINDSMGHAAGDVLLKQAASRLAAVLRPQDTLGRLGGDEFLVVAPGLRWESEATALASRLLEVARRPFTIDGREVYVSVSIGVSLGPVDGTTAQALMRNADAAMYLAKGGGRDAAHFFTPDIEAAARRRMLIENGLRTAVSDGSLYLALQPIIACADHTMIKAEALLRWTHPQLGGVPPSEFIPIAEESGLIRAIGAWVIEEAARLLVSLDPPRDGAFRLGINIASSQFTGGLHHHVAGMLARYDLDPRMLEIEITERMLLDPSPAILEQVDALRAMGVSIAIDDFGTGYSALSYLSVFHVDTLKIDRAFVSVMTDEARSQALIGAIVALGHELGCAVVAEGVETADQARLLGELAVDALQGYFLGRPTTAEAISDRLNPGTGRPYDKAALGTEFAEGGDLGLSVGAL | failed
